{
  "source": "patent US20230331823A1",
  "about": "(HENRY M JACKSON FOUNDATION FOR THE ADVANCEMENT OF MILITARY …, published 2023)",
  "binders": {"B1": {"name": "ShAb02-Foldon (ShAb02 VNAR-KESlinker-Foldon-3c-His8-Strep) (VNAR)", "VNAR": "ARVDQTPQTITKETGESLTINCVLRDSNCALASTDWYRKKSGSTNEESISKGGRYVETVNSGSKSFSLRINDLTVEDSGTYRCNAWDSWETRQLKCDYDVYGGGTVVTVNK"}, "B2": {"name": "ShAb01H06K (ShAb01Hole-06Knob) (bispecific antibody, V domains shown)", "V domain 1": "ARVDQTPRSVTKETGESLTINCVLRDSNCALSSTHWYRKKSGSTNEERILQGRRYVETVNSGSKSFSLRINDLRVEDSGTYRCKVYWGNSWQDKFCPGLGSYEYGDGTAVTVNS", "V domain 2": "ARVDQTPRSVTKETGESLTINCVLRDASYALGSTCWYRKKSGSTNEESISKGGRYVETVNSGSKSFSLRINDLTVEDGGTYRCGVGRGLGVGCDYPLCSYSYAACGDGTAVTVNS"}, "B3": {"name": "ShAb01-Foldon (ShAb01 VNAR-KESlinker-Foldon-3c-His8-Strep) (VNAR)", "VNAR": "B2 V domain 1 with S114K"}, "B4": {"name": "ShAb06H02K (ShAb06Hole-02Knob) (bispecific antibody, V domains shown)", "V domain 1": "B2 V domain 2", "V domain 2": "B1 VNAR with K111S"}, "B5": {"name": "MoB3-3D8_Fc chimera antibody (Fc fusion)", "chain": "ARVDQTPQTITKETGESLTINCVLRDSNCALASTDWYRKKSGSTNEESISKGGRYVETVNSGSKSFSLRINDLTVEDSGTYRCNAWDSWETRQLKCDYDVYGGGTVVTVN"}},
  "note": "Numbering of substitutions follows the chain as printed.",
  "data": [
    {"biological_target": "T1, SARS-CoV-2 Alpha (B.1.1.7) Spike on pseudovirions (SARS-CoV-2)", "assay": "cell-based or functional assay", "units": {"pseudovirus neutralization IC50": "µg/mL", "pseudovirus neutralization IC80": "µg/mL"}, "values": [
      {"binder": "B1", "pseudovirus neutralization IC50": 0.035, "pseudovirus neutralization IC80": 0.104},
      {"binder": "B2", "pseudovirus neutralization IC50": 1.37, "pseudovirus neutralization IC80": 2.65},
      {"binder": "B3", "pseudovirus neutralization IC50": 0.119, "pseudovirus neutralization IC80": 0.328},
      {"binder": "B4", "pseudovirus neutralization IC50": 0.109, "pseudovirus neutralization IC80": 0.225}
    ]},
    {"biological_target": "T2, SARS-CoV-2 Beta (B.1.351) Spike on pseudovirions (SARS-CoV-2)", "assay": "cell-based or functional assay", "units": {"pseudovirus neutralization IC50": "µg/mL", "pseudovirus neutralization IC80": "µg/mL"}, "values": [
      {"binder": "B1", "pseudovirus neutralization IC50": 0.397, "pseudovirus neutralization IC80": 1.8},
      {"binder": "B2", "pseudovirus neutralization IC50": 1.28, "pseudovirus neutralization IC80": 6.17},
      {"binder": "B3", "pseudovirus neutralization IC50": 0.075, "pseudovirus neutralization IC80": 0.164},
      {"binder": "B4", "pseudovirus neutralization IC50": 0.18, "pseudovirus neutralization IC80": 0.424}
    ]},
    {"biological_target": "T1, SARS-CoV-2 Alpha (B.1.1.7) Spike on …", "assay": "cell-based or functional assay", "remark": "another data set of the same source", "units": {"pseudovirus neutralization IC50": "ng/mL"}, "values": [
      {"binder": "B1", "pseudovirus neutralization IC50": 40},
      {"binder": "B3", "pseudovirus neutralization IC50": 120}
    ]},
    {"biological_target": "T2, SARS-CoV-2 Beta (B.1.351) Spike on …", "assay": "cell-based or functional assay", "remark": "another data set of the same source", "units": {"pseudovirus neutralization IC50": "ng/mL"}, "values": [
      {"binder": "B1", "pseudovirus neutralization IC50": 20},
      {"binder": "B3", "pseudovirus neutralization IC50": 70}
    ]},
    {"biological_target": "Spike Ferritin nanoparticle SpFN_pCoV1B-06-PL (PrefLead-S2P.1158op1-del-Ferritin) (SARS-CoV-2 Spike ectodomain fused to …)", "assay": "BLI, Fc fusion on AHC probe, SpFN_pCoV1B-06-PL in solution", "values": [
      {"binder": "B5", "binding result": "binds"}
    ]}
  ]
}
